Reference: patent US9757471B2, “Protozoan variant-specific surface proteins (VSP) as carriers for oral drug delivery” (priority 2012, dated 2017)
“Also recorded” adds a separate entry of the source.

Legend:
[1] = assay type: physicochemical; details: in the presence of VSP; no degradation after incubation at pH 2
Description: To assess in vitro the capacity of VSP carriers to protect IL-2 from degradation, the capacity of a VSP carrier (e.g., recombinant VSP1267) to protect human IL-2 from conditions similar to those present in the GIT was evaluated. The capacity of the VSP to protect IL-2 from degradation caused by extreme pHs or by enzymatic proteolysis (e.g., by trypsin and/or pancreatine) was assayed using the methods described in the Examples above.
IL-2 alone or mixed with VSP carrier was incubated at different pHs or with different concentration of proteolytic enzymes such as trypsin. The presence of IL-2 after the pH and proteolyitc enzyme challenges was detected using Coomassie stain of SDS-PAGE gels.

[2] = assay type: physicochemical
Description: (§1) To evaluate in vitro the capacity of a VSP carrier to protect bioactive peptides from degradation, we evaluated the capacity of recombinant VSP1267 to protect human growth hormone (Somatotropin, hGH) (Biosidus, Argentina), an 191 amino acids long protein, from conditions similar to those present in the GIT. Similar to the previous analysis performed with the VSPs alone, the capacity of the VSP to protect hGH from degradation caused by extreme pHs or by enzymatic proteolysis was assayed.
The anti-hGH monoclonal antibody was subsequently used to determine the degree of resistance of hGH to different pHs. hGH was incubated at different pHs (1.6, 2.0, 3.8, 5.0, 5.8, 7.0, 8.0, 9.0, 10.0, and 11.0) for 90 minutes.

trypsin [3] = test: hGH stability to trypsin, without or with VSP carrier (Western blot, silver staining); assay type: in vitro ADME
Description: as §1
hGH was also treated for 90 min at 37° C. with several concentrations of trypsin (0, 100, 150, 200, and 500 μg/mL). […] This protective effect was observed up to a 150 μg/mL trypsin concentration.

trypsin [4] = assay type: in vitro ADME; details: hGH combined with chimeric VSP protein (SEQ ID NO: 589) derived from T. thermophila and G. intestinalis
Text: (§2) To determine if VSP-like proteins retain the Giardia VSP extracellular domain properties, and therefore can be used as VSP carriers or as components of chimeric VSP proteins, a DNA fragment of a Tetrahymena thermophila VSP-like protein encoding a VSP domain (TTHERM_00826790 hypothetical protein; SEQ ID NO: 590) was modified using stander molecular biology techniques to generate a chimeric VSP. The chimeric VSP protein (SEQ ID NO: 589) comprised the sequences encoding the signal peptide (SEQ ID NO: 591) of Giardia intestinalis VSP1267 and a His6 purification tag fused respectively to the amino terminus and carboxy terminus of the sequence of a VSP domain (SEQ ID NO: 592) located between amino acid positions 977 and 1465 of the VSP-like protein from Tetrahymena (SEQ ID NO: 590).
(§3) The chimeric VSP was cloned into a bacmid for expression in Sf9 insect cells. Once expressed and secreted to the culture supernatant, the chimeric VSP protein was purified on a Nickel column as described in Example 2.
(§4) The chimeric VSP protein was used to verify the stability of hGH to pH and trypsin sensitivity.

[5] = assay type: physicochemical; details: hGH combined with chimeric VSP protein (SEQ ID NO: 589) derived from T. thermophila and G. intestinalis
Text: as §2, §3, §4

[6] = Serum hGH levels in mice after oral administration of hGH alone or with VSP carrier; assay type: in vivo; details: hGH alone, oral 50 to 800 μg, female Balb/c mice
Description: hGH serum levels were tested after oral administration, evaluating different doses and measurement times, to determine the best dose for combination with the VSP carrier VSP1267 (FIG. 11A). As in previous experiments, female Balb/c mice, 7 weeks old, were left without food intake for 2 hours and then received the doses indicated in […] (i.e., 50, 100, 200, 400 and 800 μg of hGH). In a parallel experiment, hGH was administered subcutaneously (FIG. 11A, inset). […] Thus, a direct relationship between absorption and these variables (time and concentration) could not be determined.

[7] = pH resistance assay of VSPs on Giardia trophozoites (immunofluorescence); assay type: physicochemical; details: trophozoites in RPMI, pH 1 to pH 10, 90 minutes, immunofluorescence microscopy
Description: To determine whether VSPs are resistant to variable pH and to proteolytic digestion, two different Giardia isolates (clonal trophozoite populations) were treated with trypsin and with variable pH and the effect of those conditions on the VSP expressed by each isolate were monitored using immunofluorescence assays.
For the pH resistance assay. Giardia parasites were resuspended in RPMI cell culture medium at variable pHs, from pH 1 to pH 10. in 1 pH unit increments (only pH 1, 3, 5 and 10 are shown in FIG. 2B). Giardia parasites were kept at the different pHs for 90 minutes, washed, and then incubated with the corresponding monoclonal antibody.

trypsin [8] = test: Western blot of VSPs after trophozoite trypsinization; assay type: in vitro ADME; details: trophozoites, trypsin 200 μg/mL and 2 mg/mL, 90 min at 37° C., PBS pH 7.4, Western blot
Description: Giardia parasite clones WB-9B10, WB-1267 and GS-H7 (expressing, respectively, the VSP9B10, VSP1267 and VSPH7 VSPs) were resuspended in PBS at pH 7.4 and treated for 90 min at 37° C. with variable concentrations of trypsin (200 μg/mL and 2 mg/mL). Then, the parasites were lysed and equivalent protein amounts were applied to each lane in the SDS-PAGE gels.

IL-10: human interleukin-10, anti-inflammatory cytokine
resistance to low pH [1]: resistant

Somatotropin [hGH]
change of hGH degradation levels with VSP carrier at different pHs [2]: no significant changes
protection of hGH from trypsin degradation (trypsin [3]; VSP carrier added at 3:1 VSP/hGH (1:3 hGH to VSP) ratio): able to protect hGH from trypsin degradation; also recorded: protects hGH from trypsin degradation
hGH degradation by trypsin (trypsin [3]; hGH alone, 90 min at 37° C., trypsin 100 to 500 μg/mL): rapidly degraded even at the lowest protease concentrations; also recorded: completely proteolyzed
protection of hGH from degradation by trypsin (trypsin [4]): able to protect hGH from degradation
protection of hGH from degradation at low pH [5]: able to protect hGH from degradation
oral absorption of hGH (serum levels) compared with subcutaneous [6]: much lower levels than subcutaneously absorption
variability of oral absorption regarding times and amounts [6]: highly variable

B1: VSPH7: Giardia variant-specific surface protein of the GS/M isolate, clone GS-H7 (Uniprot: Q24992) (protein, listed as Giardia intestinalis)
chain: MFLLINCLIASTLAGACSTTQANCVAEKCEMVGETEICTQCKQNYVPINGVCEAAASSNTKCQKASADEASDQTCGKCLSTTFMYKGGCYDKTGNLGRIICKTEGSDAGKCGACNDEKGFFDNPDAANNVDSCISCGDATGVTIPGSSTKTYKGVAGCAKCTKPSQISENTGTKEATCTECNANLYLKAVSSPTSATSCVSAEDCKTGYFPTTDTTDSKKKCLTCSTADKGGIDGCSACELLPSTTRASTVLISCSACSTNNLSPLKNECMQDCPAGTYADSNVCKPCHTSCASCKGDNTESSCTACYPGSVLSYGTDNTKGTCIAECTGKYLENCADGQCTATIAGSKYCSKCKSGFVPVNGLCVSAETARAAPPGSTPDKTNGVCTACTEKYFLESGGCYQAEKFPGNTLCTTADAGKCTTCANGQDKDSNGSCPACPTNCASCAKDNTKTCNKCFSGYYLDTAKACKKCSETSGNIQGVENCISCLAPTSPQSSTPVTCYVKTSGGGSGDNSTGGDSGPNLSSGAIAGISVAVIVVVGGLVGFLCWWFVCRGKA
VSP epitopes after incubation at variable pHs [7]: remained intact
VSP survival of exposure to trypsin (trypsin [8]): able to survive exposure to trypsin

B2: VSP1267: Giardia variant-specific surface protein expressed by clone WB-1267 (Uniprot:Q07317) (protein, listed as Giardia intestinalis)
chain: MLLIAFYLILSTFAVDCKNSGNSCEAGQCDTIGDTEICMQCNQGKVPINGICTAHSEEAVTNAGCKKNGGTNIEESDKVCGQCGNGYFLHKGGCYKIGEAPGNLICADEASNPGARTAGVCGACKDGYYKNSDAVATADSCIACEDANCATCGGAGENKCTKCIDGYFVGATGNEGGCIKCDATTGPNSYKGVAGCAKCEKPKNAGPAKCIECAADYLKTEADEQTSCVSEAVCREGKTHFPTTDSAGGNKKVCVSCGTTNNGGIENCGECTSKESAARAGTEITCTKCSSNNLSPLGDACLTDCPAGTYAVSGDSGSVCKPCHNTCAGCQTDDRETSCTACYPGYSLLYESNGATGRCVKECTGAFITNCADGQCTANVGGAKYCTQCKDGYAPIDGICTAVAAAGRDVSVCTATGGKCTACTGNYALLSGGCYNTQTLPGKSVCKAVANSNDGKCKTCANGQAPDPATNFCPLCDSTCAECSTKNDADACTKCFPGYYKTGNKCIKCTESSNNGKKIDGIPDCLSCEAPINTGPVICYVKTDGTSDDNSGNGGDSTNKSGLSTGAIAGISVAAFVVVAGLVGFLCWWFICRGKA
VSP survival of exposure to trypsin (trypsin [8]): able to survive exposure to trypsin

B3: VSP9B10: Giardia variant-specific surface protein of the WB isolate, clone WB-9B10 (Uniprot:Q9GS24) (protein, listed as Giardia intestinalis)
chain: MFGSFVLAGVLVQIAWAGKATERAQEAQCADNTNCAAEACNVLIGGKLYCSRCNTGFVPINGQCADKEGATDKCKDGSGGDTADQTCGQCAEQTFMYKGGCYEAAQQPGQTMCQAADAGVCTQAAQGYFVPPGADASHQSVIPCGDEEEITVKNDKKYKGVLHCTRCNAPTEAADANAKAATCTACQADRYLKTAKDQATSCVTEQECTGTEGFFAKNGGTKTCEACAETCKTCKTEAAKCTSCKDDKPYLKKDNGSDTGTCVTEAECKTGNTHYPDDTEPKTCKTCAEGTSDGCATCEKGADGAVACKTCGNQKKVQPNKKGCVENCPSNSNDKKTPGTCECVEGYVPEEAGTGCTKKPDPPAAPCNTPGCKTCSEPKTSKEVCTECEDPKALTPTGQCIYGCEHLEGYYEGTSEGGKKACKKCEVENCLLCNENGQCETCKDGYYKKETACAKCDTSCKTCANGEPNGCTSCEAKKALSYEGEGNTGTCKSECKPGTNNCEKCELTVDGTAYCSKCKDANQFPQNGVCSAAAGKAITCTTKGTGVCDKCANGLLRMNGGCYETTKFPGKSVCEEAASAGDTCQVEAPGYHLNNNDLVTCSAGCKTCTSNTVCTECMDGYAKTDNKCTKCATGCATCAGSASNCDTCSTGYYKYKNACVSCTESNSDKTITGVANCANCAPPLNNKGSVLCYLVQSGENTNKSGLSAGAIAGIAVAVIIVVGGLVGFLCWWFMCRGKA
VSP epitopes after incubation at variable pHs [7]: remained intact
VSP survival of exposure to trypsin (trypsin [8]): able to survive exposure to trypsin
